The test concerns the target p300 (UniProt Q09472). The test can be described thus: cell-based or functional assay.

Chain of p300 (Q09472 2-2414 limits assumed): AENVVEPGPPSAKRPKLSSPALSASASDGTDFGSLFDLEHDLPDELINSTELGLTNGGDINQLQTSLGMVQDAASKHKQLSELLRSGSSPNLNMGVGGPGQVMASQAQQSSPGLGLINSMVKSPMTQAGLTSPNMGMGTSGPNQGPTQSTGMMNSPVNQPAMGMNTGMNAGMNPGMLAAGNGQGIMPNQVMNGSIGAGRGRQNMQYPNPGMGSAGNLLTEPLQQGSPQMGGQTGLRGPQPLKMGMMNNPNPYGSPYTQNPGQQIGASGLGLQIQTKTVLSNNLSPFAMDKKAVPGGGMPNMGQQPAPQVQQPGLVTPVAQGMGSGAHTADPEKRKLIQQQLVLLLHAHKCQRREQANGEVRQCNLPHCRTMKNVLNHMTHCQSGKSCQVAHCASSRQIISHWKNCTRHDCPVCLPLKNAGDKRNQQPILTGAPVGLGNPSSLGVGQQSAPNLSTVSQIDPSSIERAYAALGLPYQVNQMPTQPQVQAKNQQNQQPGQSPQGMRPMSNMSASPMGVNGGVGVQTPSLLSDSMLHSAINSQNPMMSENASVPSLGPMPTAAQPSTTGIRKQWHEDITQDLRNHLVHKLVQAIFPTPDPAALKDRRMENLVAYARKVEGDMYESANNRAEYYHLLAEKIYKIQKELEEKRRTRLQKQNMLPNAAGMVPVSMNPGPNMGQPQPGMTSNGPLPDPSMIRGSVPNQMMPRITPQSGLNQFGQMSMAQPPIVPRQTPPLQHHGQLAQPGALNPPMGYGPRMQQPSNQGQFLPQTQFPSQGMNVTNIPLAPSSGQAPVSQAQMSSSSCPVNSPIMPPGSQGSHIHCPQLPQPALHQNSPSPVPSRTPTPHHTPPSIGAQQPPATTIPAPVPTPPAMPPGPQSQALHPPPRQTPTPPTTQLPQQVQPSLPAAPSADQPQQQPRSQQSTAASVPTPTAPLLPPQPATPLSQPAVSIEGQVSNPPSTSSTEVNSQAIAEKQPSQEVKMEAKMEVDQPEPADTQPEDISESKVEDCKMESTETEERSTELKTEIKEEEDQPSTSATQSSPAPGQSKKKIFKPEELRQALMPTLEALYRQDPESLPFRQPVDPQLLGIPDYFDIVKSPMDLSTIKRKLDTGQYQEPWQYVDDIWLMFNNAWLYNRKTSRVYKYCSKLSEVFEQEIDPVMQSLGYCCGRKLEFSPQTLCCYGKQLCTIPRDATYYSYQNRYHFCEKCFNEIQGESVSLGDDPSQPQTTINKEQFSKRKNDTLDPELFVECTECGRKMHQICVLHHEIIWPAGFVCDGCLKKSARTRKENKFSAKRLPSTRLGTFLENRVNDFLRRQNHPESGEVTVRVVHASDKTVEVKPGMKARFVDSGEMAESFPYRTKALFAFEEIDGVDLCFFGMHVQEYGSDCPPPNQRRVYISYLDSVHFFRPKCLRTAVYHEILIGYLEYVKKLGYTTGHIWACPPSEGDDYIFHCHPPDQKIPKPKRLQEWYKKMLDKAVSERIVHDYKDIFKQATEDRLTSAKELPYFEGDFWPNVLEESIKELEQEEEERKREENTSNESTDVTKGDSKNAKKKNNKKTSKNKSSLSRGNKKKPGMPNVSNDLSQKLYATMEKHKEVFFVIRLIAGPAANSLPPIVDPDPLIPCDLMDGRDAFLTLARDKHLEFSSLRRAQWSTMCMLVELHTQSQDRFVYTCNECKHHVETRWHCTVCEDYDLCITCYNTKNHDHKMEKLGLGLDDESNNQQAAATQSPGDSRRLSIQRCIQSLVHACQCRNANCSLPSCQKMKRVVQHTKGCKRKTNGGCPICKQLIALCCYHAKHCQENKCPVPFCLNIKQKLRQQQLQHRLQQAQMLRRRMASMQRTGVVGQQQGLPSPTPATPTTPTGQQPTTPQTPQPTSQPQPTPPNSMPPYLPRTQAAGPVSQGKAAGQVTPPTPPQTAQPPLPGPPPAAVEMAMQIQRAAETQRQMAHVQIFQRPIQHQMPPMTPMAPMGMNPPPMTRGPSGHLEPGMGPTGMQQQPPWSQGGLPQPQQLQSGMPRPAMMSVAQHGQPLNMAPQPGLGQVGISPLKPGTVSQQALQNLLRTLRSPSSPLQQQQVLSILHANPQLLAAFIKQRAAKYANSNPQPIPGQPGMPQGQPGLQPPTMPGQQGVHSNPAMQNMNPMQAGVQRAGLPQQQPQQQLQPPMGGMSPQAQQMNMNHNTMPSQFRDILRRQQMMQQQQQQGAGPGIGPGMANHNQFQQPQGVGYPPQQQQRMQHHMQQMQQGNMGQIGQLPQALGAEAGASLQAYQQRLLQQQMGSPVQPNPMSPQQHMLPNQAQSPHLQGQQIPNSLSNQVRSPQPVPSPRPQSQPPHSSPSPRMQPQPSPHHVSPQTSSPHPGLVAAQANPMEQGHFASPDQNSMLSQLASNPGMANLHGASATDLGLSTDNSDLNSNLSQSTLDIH

In turn, “E1AΔ2-36, a p300 binding-defective mutant” came in with a cyclin D1 promoter CD1 (-1745/+134) luciferase activity with SENP1 (PC-3 cells) of 38%.
